For one substance, Kd results are on record in patent publication EP0797662B1.

The target of the experiment is extracellular domain of the aFGF receptor (sFGFR). Briefly: ITC, aFGF and the extracellular domain of its receptor. For orientation: In ITC the heat of successive injections is recorded.

For orientation: Kd means the equilibrium constant for the complex coming apart. Low readings indicate higher affinity, high ones lower affinity.

aFGF, sequence (P05230 16-155): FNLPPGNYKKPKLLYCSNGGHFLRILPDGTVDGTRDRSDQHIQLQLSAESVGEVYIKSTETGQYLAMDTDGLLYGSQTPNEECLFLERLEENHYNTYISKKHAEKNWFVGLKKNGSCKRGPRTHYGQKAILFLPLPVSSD

The substance aFGF returned a dissociation constant Kd of 500 nM.
